Measurements taken from patent US20260234276A1 (DOMAIN THERAPEUTICS, published 2026).
Values joined by “and” are separate entries in the source; they are usually repeats but may differ in a detail not shown here. Equal entries are not always repeated.

Key:
[1] = target: T1, human CCR8 (human, UniProt P51685 1-355); assay: cell-based or functional assay
[2] = target: T1, human CCR8; assay: cell-based or functional assay; remark: listed apart in the source
[3] = target: T1, human CCR8; assay: flow cytometry, HUT78 cells (native CCR8)
Method: The same staining protocol was applied on human CCR8 transfected CHO cell line versus wild type CHO cell line, cutaneous T cell lymphoma HUT78 cell line and human activated T cell model.
Briefly, 1·10⁵ cells per well in a 96 well plate were incubated with a dilution of unconjugated anti-CCR8 mAb at 10 μg/mL then diluted at 1/3.33, 4 dilution points (during 30 min at 4° C.). […] To determine EC50 value, 8 concentrations of anti-CCR8 mAb were tested. Unbound antibodies were washed away with PBS (Invitrogen by Thermofisher Scientific, Illkirch-Graffenstaden, France) supplemented by 2% Fetal Bovine Serum (Invitrogen by Thermofisher Scientific, Illkirch-Graffenstaden, France) and 2 mM EDTA (Invitrogen by Thermofisher Scientific, Illkirch-Graffenstaden, France). Subsequently, cells are centrifuged (5 min at 400 g) and bound antibody is detected with F(ab′)₂-Goat anti-Mouse IgG (H+L) Cross-Adsorbed Secondary Antibody, Alexa Fluor 488 (dilution 1/500) (Invitrogen by Thermofisher Scientific, Illkirch-Graffenstaden, France) or with F(ab′)₂-Goat anti-Human IgG Fc Secondary Antibody, PE (Invitrogen by Thermofisher Scientific, Illkirch-Graffenstaden, France) (dilution 1/1000) at 4° C. for 30 min. Detection reagent is washed away and cells are centrifuged (5 min at 400 g) and resuspended in 30 μL PBS. Bound detection antibody is quantified on a MacsQuant16 (Miltenyi, Gladbach, Germany) (B1 or B2 channel, 5000 events per acquisition).

[4] = target: T1, human CCR8; assay: cell-based or functional assay; remark: listed apart in the source
[5] = target: T1, human CCR8; assay: cell-based or functional assay; remark: listed apart in the source
[6] = target: T1, human CCR8; assay: cell-based or functional assay; remark: listed apart in the source
[7] = target: T2, pm5 (human, sulfated tyrosines at Y15 and Y17); assay: ELISA on coated peptide [cont.]
T2 sequence (peptide, as listed by the source): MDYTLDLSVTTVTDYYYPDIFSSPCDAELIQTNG
Procedure, shortened: (§1)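 Binding is scored by optical density: plates carry 500 ng/mL peptide in carbonate/bicarbonate buffer, receive mAb at 1 μg/mL or diluted 1/10 for 90 min at room temperature, then TMB for 15 min.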

[8] = target: T3, pm6 (human, sulfated tyrosines at Y16 and Y17); assay: ELISA on coated peptide [cont.]
T3 sequence (peptide, as listed by the source): as above
Procedure, shortened: as §1

[9] = target: T4, pm8 (human, sulfated tyrosines at Y15, Y16 and Y17); assay: ELISA on coated peptide [cont.]
T4 sequence (peptide, as listed by the source): as above
Procedure, shortened: as §1

[10] = target: T5, pm3 (human, sulfated tyrosine at Y17); assay: ELISA on coated peptide [cont.]
T5 sequence (peptide, as listed by the source): as above
Procedure, shortened: as §1

[11] = target: T1, human CCR8; assay: flow cytometry, hCCR8 transfected CHOK1 cells
[12] = target: T2, pm5; assay: ELISA on coated peptide
Method: (§2) The specific binding properties of antibodies were evaluated by ELISA with coated CCR8 related peptides (500 ng/mL) in carbonate/bicarbonate buffer. Different peptides were used as described in Table 1 (see Example 1). Each anti-CCR8 mAb was tested at 1 μg/mL then diluted at 1/10. After an incubation at room temperature during 90 min, unbound mAbs were removed by washings. […] After washings, 3,3′,5,5′-tetramethylbenzidine (TMB) (Interchim, Montlugon, France) was added for 15 min. Then the optical density (OD) was determined by using a multiplate reader (Tecan, Lyon, France) and correlated with mAb reactivity on the panel of coated peptides.

[13] = target: T3, pm6; assay: ELISA on coated peptide
Method: as §2

[14] = target: T4, pm8; assay: ELISA on coated peptide
Method: as §2

[15] = target: T5, pm3; assay: ELISA on coated peptide
Method: as §2

[16] = target: T1, human CCR8; assay: competition HTRF on HEK-293 cells with hCCR8; blocked ligand CCL1-AF647 [cont.]

Row | Binder | IC50 (Gi2 BRET, pH 6.5) [4] | IC50 (Gi2 BRET, pH 7.4) [4] | hCCL1 (100 nM) residual response, Protocol #2, mAb 0.08 µg/mL [5] | hCCL1 (100 nM) residual response, Protocol #2, mAb 0.4 µg/mL [5] | hCCL1 (100 nM) residual response, Protocol #2, mAb 10 µg/mL [5] | hCCL1 (100 nM) residual response, Protocol #3, mAb 0.05 µg/mL [5] | hCCL1 (100 nM) residual response, Protocol #3, mAb 0.5 µg/mL [5] | hCCL1 (100 nM) residual response, Protocol #3, mAb 5 µg/mL [5] | binding result [7] | binding result [8] | binding result [9] | binding result [10] | % positive cells [11] | MFI fold change to isotype ctrl [11] | other results
1 | 3-83 (antibody) heavy: not shown light: DIVMTQAAPSLSVTPGESASISCTSSKSLLHSNGNTYLYWFLQKPGQSPQLLIYRMSNLASGVPDRFSGSGSGTAFTLKISRVEAEDVGVYYCMQHREYPFTFGSGTKLEIKRTVAAPSVFIFPPSDEQLKSGTASVVCLLNNFYPREAKVQWKVDNALQSGNSQESVTEQDSKDSTYSLSSTLTLSKADYEKHKVYACEVTHQGLSSPVTKSFNRGEC |  |  |  |  |  |  |  |  |  |  |  |  |  |  | ADCC % Max lysis, NK cells Donor 1 [1]: 22%; ADCC % Max lysis, NK cells Donor 2 [1]: 20%; ADCC EC50, NK cells Donor 1 [1]: 0.00224 nM; ADCC EC50, NK cells Donor 2 [1]: 0.00216 nM; ADCP % Max of phagocytosis, monocyte-derived macrophages Donor 9 [2]: 8.29%; % of labelled cells [3]: 34%; EC50 [3]: 0.4 nM
2 | 3-85 (antibody) heavy: not shown light: DIVMTQAAPSVSVTPGESVSISCTSSKSLLHSNGNTYLYWFLQRPGQSPQLLIYRMSNLASGVPDRFSGSGSGTAFTLRISRVEAEDVGVYYCMQHREYPFTFGSGTKLEIKRTVAAPSVFIFPPSDEQLKSGTASVVCLLNNFYPREAKVQWKVDNALQSGNSQESVTEQDSKDSTYSLSSTLTLSKADYEKHKVYACEVTHQGLSSPVTKSFNRGEC |  |  |  |  |  |  |  |  |  |  |  |  |  |  | ADCC % Max lysis, NK cells Donor 1 [1]: 31%; ADCC % Max lysis, NK cells Donor 2 [1]: 26%; ADCC EC50, NK cells Donor 1 [1]: 0.0733 nM; ADCC EC50, NK cells Donor 2 [1]: 0.0904 nM; ADCP % Max of phagocytosis, monocyte-derived macrophages Donor 9 [2]: 7.27%
3 | 3-13 (antibody, V domains shown) VH: KVQLQQSGPELVKPGASVKISCKTSGYTFTEYTIHWVQQIHGKSPEWIGGINPNGDTRYDQKFKGKATLTIDKSSSTAYMELRSLTSEDSAVYYCARVARFYGISPYAMDYWGQGTSVTVSS VL: DVVMTQTPLSLPVSLGDQASISCRCTQSLLHSNGDTYLHWYLQKPGQSPNLLIYKVSNRFSGVPDRFSGSGSGTDFTLKINRVEAEDLGVYFCSQSTHVPYTFGGGTNLEIK | 0.051 µg/ml and 0.34 nM | 0.059 µg/ml and 0.396 nM | 101% | 93% | 100% | 92% | 81% | 73% | binds | binds | binds | binds | 85.7% | 9.8 fold | Top plateau value (% of hCCL1 100 nM) with 5 µg/mL mAb, Protocol #3 [6]: 663%
4 | 3-21 (antibody, V domains shown) VH: QVQLKESGPGLVAPSQSLSITCTVSGLSMNDYVVTWIRQPPGKGLEWLGVIWGGGNTYYNSDLKSRLSITKDNSKSQVFFKMSSLQTDDTAVYYCARRHRDYALDYWGQGISVTVSS VL: DVVMTQTPLSLPVSLGDQASISCRSSQSLVYSNGNTYLHWYLQKPGQSPKLLIYKVSNRFSGVPDRFSGSGSGTDFTLKISRVEAEDLGVYFCSQSTYVPPTFGGGTKLEIK | 0.414 µg/ml and 2.76 nM | 0.359 µg/ml and 2.4 nM | 99% | 97% | 97% | 99% | 84% | 75% | binds | binds | binds | binds | 85.2% | 11.9 fold | Top plateau value (% of hCCL1 100 nM) with 5 µg/mL mAb, Protocol #3 [6]: 133%
5 | 3-1 (antibody, V domains shown) VH: EVQLVETGGGLVQPKGSLKVSCAASGFTFNTNAMNWVRQAPGKGLEWVARIRSKSNNYATYYADSVKDRFIISRDDSQSMLYLQMNNLKTEDTAMYYCVRGGYYGTSVYFDVWGAGTTVTVSS VL: DIVMTQAAPSVPVTPGESVSISCRSSKSLLHSNGNTYLYWFLQRPGQSPQLLIYRMSNLASGVPDRFSGSGSGTAFTLRISRVEAEDVGVYYCMQHLEYPFTFGGGTKLEIK | > 4.5 µg/ml and > 30 nM | > 4.5 µg/ml and > 30 nM |  |  |  |  |  |  |  |  |  |  | 38.8% | 2.61 fold | binding result [12]: binds; binding result [13]: binds; binding result [14]: binds; binding result [15]: binds

Now from value to binder, other results behind:

Row | IC50 (Gi2 BRET, pH 6.5) [4] | IC50 (Gi2 BRET, pH 7.4) [4] | hCCL1 (100 nM) residual response, Protocol #2, mAb 0.08 µg/mL [5] | hCCL1 (100 nM) residual response, Protocol #2, mAb 0.4 µg/mL [5] | hCCL1 (100 nM) residual response, Protocol #2, mAb 10 µg/mL [5] | hCCL1 (100 nM) residual response, Protocol #3, mAb 0.05 µg/mL [5] | hCCL1 (100 nM) residual response, Protocol #3, mAb 0.5 µg/mL [5] | hCCL1 (100 nM) residual response, Protocol #3, mAb 5 µg/mL [5] | binding result [7] | binding result [8] | binding result [9] | binding result [10] | % positive cells [11] | MFI fold change to isotype ctrl [11] | Binder | other results
6 |  |  |  |  |  |  |  |  |  |  |  |  | 51.2% | 3.41 fold | 3-2 (antibody, V domains shown) VH: EVQLVESGGGLVKPGGSLKLSCAASGFTFSSYAMSWVRQTPEKRLEWVATINSGGSYTFYPDSVKGRFTISRDNAKNTLYLQMSSLRSVDTAIYYCARVSGYDERFAYWGQGTLVTVSA VL: DVLMTQTPLSLPVSLGAQASISCRSSQSIVHSNGNTYLEWYLQKPGQSPKLLIYKVSNRFSGVPDRFSGSGSGTDFTLKLSRVEAEDLGVYYCFQGSHVPPTFGGGTKLEIK | binding result [12]: binds; binding result [13]: binds; binding result [14]: binds; binding result [15]: binds
7 | 0.024 µg/ml and 0.157 nM | 0.048 µg/ml and 0.318 nM | 88% | 82% | 64% | 88% | 71% | 70% | binds | binds | binds | binds |  |  | 3-76 (antibody, human IgG1, kappa, V domains shown, humanized, human IgG1 kappa) VH: EVQLVESGGGLVQPGRSLRLSCTASGFTFNTYAMNWVRQAPGKGLEWVARIRSKSNNYATYYAASVKGRFTISRDDSKSIAYLQMNSLKTEDTAVYYCVRGREAYYRYDGGYYAMDVWGQGTTVTVSS VL: DIVMTQAAPSLPVTPGESASISCRSSKSLLHSNGNTYLYWFLQKPGQSPQLLIYRMSNLASGVPDRFSGSGSGTAFTLKISRVEAEDVGVYYCMQHLEYPFTFGSGTKLEIKR | IC50 (read off the curve) [16]: ~0.02 µg/mL
